Here are results for 25 molecules from patent publication US20260193293A1, “PEPTIDES CAPABLE OF INHIBITING PROTEIN-PROTEIN INTERACTIONS AT GABAB1A SUBUNIT AND USES THEREOF” (UNIVERSITY OF COPENHAGEN, priority 2022, published 2026).

Non-standard residues stand in square brackets, D forms with d. NMeW = CN[C@@H](Cc1c[nH]c2ccccc12)C(=O)O; NMeT = CN[C@H](C(=O)O)[C@@H](C)O; NMeE = CN[C@@H](CCC(=O)O)C(=O)O; NMeD = CN[C@@H](CC(=O)O)C(=O)O; NMeV = CN[C@H](C(=O)O)C(C)C; NMeS = CN[C@@H](CO)C(=O)O; NMeA = CN[C@@H](C)C(=O)O; Sar = CNCC(=O)O

B1: …(N-Me-A)DTD (peptide)
peptide: Ac-EDDSDVWWGG[NMeA]DTD-NH2
SMILES: CC(=O)N[C@@H](CCC(=O)O)C(=O)N[C@@H](CC(=O)O)C(=O)N[C@@H](CC(=O)O)C(=O)N[C@@H](CO)C(=O)N[C@@H](CC(=O)O)C(=O)N[C@H](C(=O)N[C@@H](Cc1c[nH]c2ccccc12)C(=O)N[C@@H](Cc1c[nH]c2ccccc12)C(=O)NCC(=O)NCC(=O)N(C)[C@@H](C)C(=O)N[C@@H](CC(=O)O)C(=O)N[C@H](C(=O)N[C@@H](CC(=O)O)C(N)=O)[C@@H](C)O)C(C)C
B2: … (peptide)
peptide: Ac-ETEFIAWGPTGAED-NH2
B3: … (peptide)
peptide: Ac-EAEFIAWGPTGDED-NH2
B4: EDDSDV(N-Me-W)WGGADTD (peptide)
peptide: Ac-EDDSDV[NMeW]WGGADTD-NH2
SMILES: CC(=O)N[C@@H](CCC(=O)O)C(=O)N[C@@H](CC(=O)O)C(=O)N[C@@H](CC(=O)O)C(=O)N[C@@H](CO)C(=O)N[C@@H](CC(=O)O)C(=O)N[C@H](C(=O)N(C)[C@@H](Cc1c[nH]c2ccccc12)C(=O)N[C@@H](Cc1c[nH]c2ccccc12)C(=O)NCC(=O)NCC(=O)N[C@@H](C)C(=O)N[C@@H](CC(=O)O)C(=O)N[C@H](C(=O)N[C@@H](CC(=O)O)C(N)=O)[C@@H](C)O)C(C)C
B5: … (peptide)
peptide: Ac-ETEFIAWGPAGDED-NH2
B6: EDDS(N-Me-D)… (peptide)
peptide: Ac-EDDS[NMeD]VWWGGADTD-NH2
SMILES: CC(=O)N[C@@H](CCC(=O)O)C(=O)N[C@@H](CC(=O)O)C(=O)N[C@@H](CC(=O)O)C(=O)N[C@@H](CO)C(=O)N(C)[C@@H](CC(=O)O)C(=O)N[C@H](C(=O)N[C@@H](Cc1c[nH]c2ccccc12)C(=O)N[C@@H](Cc1c[nH]c2ccccc12)C(=O)NCC(=O)NCC(=O)N[C@@H](C)C(=O)N[C@@H](CC(=O)O)C(=O)N[C@H](C(=O)N[C@@H](CC(=O)O)C(N)=O)[C@@H](C)O)C(C)C
B7: … (peptide)
peptide: Ac-ATEFIAWGPTGDED-NH2
B8: EDDSD(N-Me-V)WWGGADTD (peptide)
peptide: Ac-EDDSD[NMeV]WWGGADTD-NH2
SMILES: CC(=O)N[C@@H](CCC(=O)O)C(=O)N[C@@H](CC(=O)O)C(=O)N[C@@H](CC(=O)O)C(=O)N[C@@H](CO)C(=O)N[C@@H](CC(=O)O)C(=O)N(C)[C@H](C(=O)N[C@@H](Cc1c[nH]c2ccccc12)C(=O)N[C@@H](Cc1c[nH]c2ccccc12)C(=O)NCC(=O)NCC(=O)N[C@@H](C)C(=O)N[C@@H](CC(=O)O)C(=O)N[C@H](C(=O)N[C@@H](CC(=O)O)C(N)=O)[C@@H](C)O)C(C)C
B9: … (peptide)
peptide: Ac-ETEAIAWGPTGDED-NH2
B10: … (peptide)
peptide: Ac-ETEFIAWGPTADED-NH2
B11: … (peptide)
peptide: Ac-ETEFIAWGPTGDAD-NH2
B12: …(N-Me-T)D (peptide)
peptide: Ac-EDDSDVWWGGAD[NMeT]D-NH2
SMILES: CC(=O)N[C@@H](CCC(=O)O)C(=O)N[C@@H](CC(=O)O)C(=O)N[C@@H](CC(=O)O)C(=O)N[C@@H](CO)C(=O)N[C@@H](CC(=O)O)C(=O)N[C@H](C(=O)N[C@@H](Cc1c[nH]c2ccccc12)C(=O)N[C@@H](Cc1c[nH]c2ccccc12)C(=O)NCC(=O)NCC(=O)N[C@@H](C)C(=O)N[C@@H](CC(=O)O)C(=O)N(C)[C@H](C(=O)N[C@@H](CC(=O)O)C(N)=O)[C@@H](C)O)C(C)C
B13: (N-Me-E)… (peptide)
peptide: Ac-[NMeE]DDSDVWWGGADTD-NH2
SMILES: CC(=O)N(C)[C@@H](CCC(=O)O)C(=O)N[C@@H](CC(=O)O)C(=O)N[C@@H](CC(=O)O)C(=O)N[C@@H](CO)C(=O)N[C@@H](CC(=O)O)C(=O)N[C@H](C(=O)N[C@@H](Cc1c[nH]c2ccccc12)C(=O)N[C@@H](Cc1c[nH]c2ccccc12)C(=O)NCC(=O)NCC(=O)N[C@@H](C)C(=O)N[C@@H](CC(=O)O)C(=O)N[C@H](C(=O)N[C@@H](CC(=O)O)C(N)=O)[C@@H](C)O)C(C)C
B14: … (peptide)
peptide: Ac-ETEFIAWAPTGDED-NH2
B15: EDD(N-Me-S)… (peptide)
peptide: Ac-EDD[NMeS]DVWWGGADTD-NH2
SMILES: CC(=O)N[C@@H](CCC(=O)O)C(=O)N[C@@H](CC(=O)O)C(=O)N[C@@H](CC(=O)O)C(=O)N(C)[C@@H](CO)C(=O)N[C@@H](CC(=O)O)C(=O)N[C@H](C(=O)N[C@@H](Cc1c[nH]c2ccccc12)C(=O)N[C@@H](Cc1c[nH]c2ccccc12)C(=O)NCC(=O)NCC(=O)N[C@@H](C)C(=O)N[C@@H](CC(=O)O)C(=O)N[C@H](C(=O)N[C@@H](CC(=O)O)C(N)=O)[C@@H](C)O)C(C)C
B16: E(N-Me-D)… (peptide)
peptide: Ac-E[NMeD]DSDVWWGGADTD-NH2
SMILES: CC(=O)N[C@@H](CCC(=O)O)C(=O)N(C)[C@@H](CC(=O)O)C(=O)N[C@@H](CC(=O)O)C(=O)N[C@@H](CO)C(=O)N[C@@H](CC(=O)O)C(=O)N[C@H](C(=O)N[C@@H](Cc1c[nH]c2ccccc12)C(=O)N[C@@H](Cc1c[nH]c2ccccc12)C(=O)NCC(=O)NCC(=O)N[C@@H](C)C(=O)N[C@@H](CC(=O)O)C(=O)N[C@H](C(=O)N[C@@H](CC(=O)O)C(N)=O)[C@@H](C)O)C(C)C
B17: … (peptide)
peptide: Ac-ETEFIAWGPTGDEA-NH2
B18: …(N-Me-D) (peptide)
peptide: Ac-EDDSDVWWGGADT[NMeD]-NH2
SMILES: CC(=O)N[C@@H](CCC(=O)O)C(=O)N[C@@H](CC(=O)O)C(=O)N[C@@H](CC(=O)O)C(=O)N[C@@H](CO)C(=O)N[C@@H](CC(=O)O)C(=O)N[C@H](C(=O)N[C@@H](Cc1c[nH]c2ccccc12)C(=O)N[C@@H](Cc1c[nH]c2ccccc12)C(=O)NCC(=O)NCC(=O)N[C@@H](C)C(=O)N[C@@H](CC(=O)O)C(=O)N[C@H](C(=O)N(C)[C@@H](CC(=O)O)C(N)=O)[C@@H](C)O)C(C)C
B19: EDDSDVW(N-Me-W)GGADTD (peptide)
peptide: Ac-EDDSDVW[NMeW]GGADTD-NH2
SMILES: CC(=O)N[C@@H](CCC(=O)O)C(=O)N[C@@H](CC(=O)O)C(=O)N[C@@H](CC(=O)O)C(=O)N[C@@H](CO)C(=O)N[C@@H](CC(=O)O)C(=O)N[C@H](C(=O)N[C@@H](Cc1c[nH]c2ccccc12)C(=O)N(C)[C@@H](Cc1c[nH]c2ccccc12)C(=O)NCC(=O)NCC(=O)N[C@@H](C)C(=O)N[C@@H](CC(=O)O)C(=O)N[C@H](C(=O)N[C@@H](CC(=O)O)C(N)=O)[C@@H](C)O)C(C)C
B20: … (peptide)
peptide: Ac-ETAFIAWGPTGDED-NH2
B21: …(N-Me-D)TD (peptide)
peptide: Ac-EDDSDVWWGGA[NMeD]TD-NH2
SMILES: CC(=O)N[C@@H](CCC(=O)O)C(=O)N[C@@H](CC(=O)O)C(=O)N[C@@H](CC(=O)O)C(=O)N[C@@H](CO)C(=O)N[C@@H](CC(=O)O)C(=O)N[C@H](C(=O)N[C@@H](Cc1c[nH]c2ccccc12)C(=O)N[C@@H](Cc1c[nH]c2ccccc12)C(=O)NCC(=O)NCC(=O)N[C@@H](C)C(=O)N(C)[C@@H](CC(=O)O)C(=O)N[C@H](C(=O)N[C@@H](CC(=O)O)C(N)=O)[C@@H](C)O)C(C)C
B22: e… (peptide)
peptide: Ac-[dE]TEFIAWGPTGDED-NH2
SMILES: CC[C@H](C)[C@H](NC(=O)[C@H](Cc1ccccc1)NC(=O)[C@H](CCC(=O)O)NC(=O)[C@@H](NC(=O)[C@@H](CCC(=O)O)NC(C)=O)[C@@H](C)O)C(=O)N[C@@H](C)C(=O)N[C@@H](Cc1c[nH]c2ccccc12)C(=O)NCC(=O)N1CCC[C@H]1C(=O)N[C@H](C(=O)NCC(=O)N[C@@H](CC(=O)O)C(=O)N[C@@H](CCC(=O)O)C(=O)N[C@@H](CC(=O)O)C(N)=O)[C@@H](C)O
B23: EDDSDVWW(N-Me-G)GADTD (peptide)
peptide: Ac-EDDSDVWW[Sar]GADTD-NH2
SMILES: CC(=O)N[C@@H](CCC(=O)O)C(=O)N[C@@H](CC(=O)O)C(=O)N[C@@H](CC(=O)O)C(=O)N[C@@H](CO)C(=O)N[C@@H](CC(=O)O)C(=O)N[C@H](C(=O)N[C@@H](Cc1c[nH]c2ccccc12)C(=O)N[C@@H](Cc1c[nH]c2ccccc12)C(=O)N(C)CC(=O)NCC(=O)N[C@@H](C)C(=O)N[C@@H](CC(=O)O)C(=O)N[C@H](C(=O)N[C@@H](CC(=O)O)C(N)=O)[C@@H](C)O)C(C)C
B24: … (peptide)
peptide: Ac-ETEFIAWGATGDED-NH2
B25: ED(N-Me-D)… (peptide)
peptide: Ac-ED[NMeD]SDVWWGGADTD-NH2
SMILES: CC(=O)N[C@@H](CCC(=O)O)C(=O)N[C@@H](CC(=O)O)C(=O)N(C)[C@@H](CC(=O)O)C(=O)N[C@@H](CO)C(=O)N[C@@H](CC(=O)O)C(=O)N[C@H](C(=O)N[C@@H](Cc1c[nH]c2ccccc12)C(=O)N[C@@H](Cc1c[nH]c2ccccc12)C(=O)NCC(=O)NCC(=O)N[C@@H](C)C(=O)N[C@@H](CC(=O)O)C(=O)N[C@H](C(=O)N[C@@H](CC(=O)O)C(N)=O)[C@@H](C)O)C(C)C

Chain of Sushi domains (SD1/2) protein of the GABAB1a (GB1a) subunit, recombinant (Q9Z0U4 29-158): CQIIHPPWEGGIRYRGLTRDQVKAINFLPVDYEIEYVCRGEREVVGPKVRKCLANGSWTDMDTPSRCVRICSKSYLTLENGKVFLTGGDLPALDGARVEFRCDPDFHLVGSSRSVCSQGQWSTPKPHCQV

This assay addresses Sushi domains (SD1/2) protein of the GABAB1a (GB1a) subunit, recombinant. As to the kind of experiment: FP competition.
For B1, the Ki stood at 704 nM.
Then B2, with 50 nM.
Then B3, with 34 nM.
The value for B4 was 85600 nM.
With B5, the Ki was found to be 89 nM.
The value for B6 was 3760 nM; that for B7 was 53 nM.
Then B8, with 12300 nM; and B9, with 688 nM.
Then B10, with 20 nM.
Take B11: the Ki is 38 nM.
The value for B12 was 503 nM; that for B13 was 670 nM; that for B14 was 196 nM.
The value for B15 was 1670 nM.
The value for B16 was 655 nM.
Regarding B17, the inhibitory constant (Ki) came to 44 nM.
The value for B18 was 565 nM; that for B19 was 1380 nM.
The value for B20 was 49 nM; that for B21 was 403 nM; that for B22 was 46 nM.
Consider B23, for which the Ki is 18900 nM.
Turning to B24, the Ki stood at 291 nM.
The value for B25 was 671 nM.
